# Measurements from patent US20210380703A1.
# Molecular target: Human Fc (human)
# Assay: ELISA; negative control
row,optical density,Binder
1,0.322 OD,"365_E09 (antibody, V domains shown) VH: EVQLLESGGGLVQPGGSLRLSCAASGFTFSSYGMHWVRQAPGKGLEWVASINYNSGYKSYADSVKGRFTISRDNSKNTLYLQMNSLRAEDTAVYYCARSANWHDTALDYWGQGTLVTVSS VL: DIQMTQSPSSLSASVGDRVTITCRASQSILTYVNWYQQKPGKAPKLVIYAATSRASGVPSRFSGSGSGTDFTLTISSLQPEDFATYYCQQSDDSPLTFGGGTKVEIK"
2,0.279 OD,"366_F05 (antibody, V domains shown) VH: EVQLLESGGGLVQPGGSLRLSCAASGFTFSSYSMNWVRQAPGKGLEWVANINYNSGYKSYADSVKGRFTISRDNSKNTLYLQMNSLRAEDTAVYYCARSANWHDTHLDYWGQGTLVTVSS VL: DIQMTQSPSSLSASVGDRVTITCRASQSILTYLNWYQQKPGKAPKLLIYAATSRASGVPSRFSGSGSGTDFTLTISSLQPEDFATYYCQQSDNTPLTFGGGTKVEIK"
3,0.309 OD,"366_A07 (antibody, V domains shown) VH: EVQLLESGGGLVQPGGSLRLSCAASGFTFSSYGMHWVRQAPGKGLEWVASINYNGGYTGYADSVKGRFTISRDNSKNTLYLQMNSLRAEDTAVYYCARSANWHDTALDYWGQGTLVTVSS VL: DIQMTQSPSSLSASVGDRVTITCRASQSIVSYVNWYQQKPGKAPKLVIYAATSRHSGVPSRFSGSGSGTDFTLTISSLQPEDFATYYCQQSYESPLTFGGGTKVEIK"
4,0.271 OD,"366_E10 (antibody, V domains shown) VH: EVQLLESGGGLVQPGGSLRLSCAASGFTFDSYGMNWVRQAPGKGLEWVSGINYNGGYKGYADSVKGRFTISRDNSKNTLYLQMNSLRAEDTAVYYCARSANWHDTHLDYWGQGTLVTVSS VL: DIQMTQSPSSLSASVGDRVTITCRASQSILSYVNWYQQKPGKAPKLVIYAATSRHSGVPSRFSGSGSGTDFTLTISSLQPEDFATYYCQQSYSLPLTFGGGTKVEIK"
5,0.281 OD,"366_F04 (antibody, V domains shown) VH: EVQLLESGGGLVQPGGSLRLSCAASGFTFSDYGMNWVRQAPGKGLEWVSGINYNGGYTSYADSVKGRFTISRDNSKNTLYLQMNSLRAEDTAVYYCARSANWHDTALDYWGQGTLVTVSS VL: DIQMTQSPSSLSASVGDRVTITCRASQSILSYVNWYQQKPGKAPKLVIYATTSRHSGVPSRFSGSGSGTDFTLTISSLQPEDFATYYCQQSYESPLTFGGGTKVEIK"
6,0.311 OD,"366_B12 (antibody, V domains shown) VH: EVQLLESGGGLVQPGGSLRLSCAASGFTFSSYSMNWVRQAPGKGLEWVAGINYNSGYKGYADSVKGRFTISRDNSKNTLYLQMNSLRAEDTAVYYCARSANWHDTALDYWGQGTLVTVSS VL: DIQMTQSPSSLSASVGDRVTITCRASQSILTYVNWYQQKPGKAPKLLIYAATSRASGVPSRFSGSGSGTDFTLTISSLQPEDFATYYCQQSYDNPLTFGGGTKVEIK"
7,0.424 OD,"366_B10 (antibody, V domains shown) VH: EVQLLESGGGLVQPGGSLRLSCAASGFTFSSYGMNWVRQAPGKGLEWVSGINYNSGYTSYADSVKGRFTISRDNSKNTLYLQMNSLRAEDTAVYYCARSANWHDTALDYWGQGTLVTVSS VL: DIQMTQSPSSLSASVGDRVTITCRASQSIISYLNWYQQKPGKAPKLLIYAATSRASGVPSRFSGSGSGTDFTLTISSLQPEDFATYYCQQSYDNPLTFGGGTKVEIK"
8,0.278 OD,"365_G11 (antibody, V domains shown) VH: EVQLLESGGGLVQPGGSLRLSCAASGFTFSSYGMNWVRQAPGKGLEWVANINYNGGYTGYADSVKGRFTISRDNSKNTLYLQMNSLRAEDTAVYYCARSANWHDTALDYWGQGTLVTVSS VL: DIQMTQSPSSLSASVGDRVTITCRASQSIITYVNWYQQKPGKAPKLLIYAVTSRHSGVPSRFSGSGSGTDFTLTISSLQPEDFATYYCQQSYNSPLTFGGGTKVEIK"
9,0.338 OD,"366_D04 (antibody, V domains shown) VH: EVQLLESGGGLVQPGGSLRLSCAASGFTFSSYSMNWVRQAPGKGLEWVSGINYNGGYTSYADSVKGRFTISRDNSKNTLYLQMNSLRAEDTAVYYCARSANWHDTALDYWGQGTLVTVSS VL: DIQMTQSPSSLSASVGDRVTITCRASQSISSYVNWYQQKPGKAPKLLIYATTSRASGVPSRFSGSGSGTDFTLTISSLQPEDFATYYCQQSYETPLTFGGGTKVEIK"
10,0.375 OD,"365_H11 (antibody, V domains shown) VH: EVQLLESGGGLVQPGGSLRLSCAASGFTFSSYSMNWVRQAPGKGLEWVSGINYNSGYTGYADSVKGRFTISRDNSKNTLYLQMNSLRAEDTAVYYCARSANWHDTALDYWGQGTLVTVSS VL: DIQMTQSPSSLSASVGDRVTITCRASQSILTYLNWYQQKPGKAPKLLIYAATSRASGVPSRFSGSGSGTDFTLTISSLQPEDFATYYCQQSYDSPLTFGGGTKVEIK"
11,0.411 OD,"365_F12 (antibody, V domains shown) VH: EVQLLESGGGLVQPGGSLRLSCAASGFTFSDYSMNWVRQAPGKGLEWVSGINYNGGYTSYADSVKGRFTISRDNSKNTLYLQMNSLRAEDTAVYYCARSANWHDTHLDYWGQGTLVTVSS VL: DIQMTQSPSSLSASVGDRVTITCRASQSILTYVNWYQQKPGKAPKLVIYAATSRHSGVPSRFSGSGSGTDFTLTISSLQPEDFATYYCQQSYETPLTFGGGTKVEIK"
12,0.329 OD,"365_F06 (antibody, V domains shown) VH: EVQLLESGGGLVQPGGSLRLSCAASGFTFSSYGMNWVRQAPGKGLEWVAGINYNSGYKSYADSVKGRFTISRDNSKNTLYLQMNSLRAEDTAVYYCARSANWHDTALDYWGQGTLVTVSS VL: DIQMTQSPSSLSASVGDRVTITCRASQSILSYVNWYQQKPGKAPKLLIYAATSRASGVPSRFSGSGSGTDFTLTISSLQPEDFATYYCQQSDNLPLTFGGGTKVEIK"
13,0.366 OD,"365_H03 (antibody, V domains shown) VH: EVQLLESGGGLVQPGGSLRLSCAASGFTFDDYGMNWVRQAPGKGLEWVAGINYNGGYKSYADSVKGRFTISRDNSKNTLYLQMNSLRAEDTAVYYCARSANWHDTALDYWGQGTLVTVSS VL: DIQMTQSPSSLSASVGDRVTITCRASQSILSYVNWYQQKPGKAPKLVIYAATSLHSGVPSRFSGSGSGTDFTLTISSLQPEDFATYYCQQSYNNPLTFGGGTKVEIK"
14,0.341 OD,"365_F01 (antibody, V domains shown) VH: EVQLLESGGGLVQPGGSLRLSCAASGFTFDSYSMNWVRQAPGKGLEWVSGINYNSGYKGYADSVKGRFTISRDNSKNTLYLQMNSLRAEDTAVYYCARSANWHDTHLDYWGQGTLVTVSS VL: DIQMTQSPSSLSASVGDRVTITCRASQSIVSYLNWYQQKPGKAPKLVIYAATSLASGVPSRFSGSGSGTDFTLTISSLQPEDFATYYCQQSYELPLTFGGGTKVEIK"
15,0.39 OD,"365_G01 (antibody, V domains shown) VH: EVQLLESGGGLVQPGGSLRLSCAASGFTFDSYGMNWVRQAPGKGLEWVAGINYNSGYKSYADSVKGRFTISRDNSKNTLYLQMNSLRAEDTAVYYCARSANWHDTALDYWGQGTLVTVSS VL: DIQMTQSPSSLSASVGDRVTITCRASQSILTYVNWYQQKPGKAPKLLIYATTSRASGVPSRFSGSGSGTDFTLTISSLQPEDFATYYCQQSYDSPLTFGGGTKVEIK"
16,0.403 OD,"366_B08 (antibody, V domains shown) VH: EVQLLESGGGLVQPGGSLRLSCAASGFTFDSYGMNWVRQAPGKGLEWVSNINYNGGYKGYADSVKGRFTISRDNSKNTLYLQMNSLRAEDTAVYYCARSANWHDTHLDYWGQGTLVTVSS VL: DIQMTQSPSSLSASVGDRVTITCRASQSIVSYLNWYQQKPGKAPKLLIYAATSRHSGVPSRFSGSGSGTDFTLTISSLQPEDFATYYCQQSYDNPLTFGGGTKVEIK"
